{"source": "paper doi:10.1101/2024.05.10.593562", "about": "(bioRxiv, 2024)", "molecular_target": "HDAC1-FLAG (UniProt Q13547 1-482)", "sequence (Q13547 whole entry)": "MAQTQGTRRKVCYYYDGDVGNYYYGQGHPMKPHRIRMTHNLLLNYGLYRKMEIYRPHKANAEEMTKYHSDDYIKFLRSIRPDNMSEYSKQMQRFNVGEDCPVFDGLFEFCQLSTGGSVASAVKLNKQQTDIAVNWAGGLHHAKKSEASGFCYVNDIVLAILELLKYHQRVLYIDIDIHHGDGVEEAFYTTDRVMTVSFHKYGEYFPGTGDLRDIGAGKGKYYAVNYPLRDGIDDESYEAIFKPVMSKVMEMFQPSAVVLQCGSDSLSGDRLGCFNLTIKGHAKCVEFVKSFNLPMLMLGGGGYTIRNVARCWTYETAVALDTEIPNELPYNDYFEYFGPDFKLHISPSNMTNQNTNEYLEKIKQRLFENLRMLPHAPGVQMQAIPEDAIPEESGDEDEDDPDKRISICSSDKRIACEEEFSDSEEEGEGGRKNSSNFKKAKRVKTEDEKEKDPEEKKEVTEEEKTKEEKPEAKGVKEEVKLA", "test": "AlphaScreen or HTRF"}
{"binder": "GST-Rb 380-785 (domain or fragment) NTIQQLMMILNSASDQPSENLISYFNNCTVNPKESILKRVKDIGYIFKEKFAKAVGQGCVEIGSQRYKLGVRLYYRVMESMLKSEEERLSIQNFSKLLNDNIFHMSLLACALEVVMATYSRSTSQNLDSGTDLSFPWILNVLNLKAFDFYKVIESFIKAEGNLTREMIKHLERCEHRIMESLAWLSDSPLFDLIKQSKDREGPTDHLESACPLNLPLQNNHTAADMYLSPVRSPKKKGSTTRVNSTANAETQATSAFQTQKPLKSTSLSLFYKKVYRLAYLRLNTLCERLLSEHPELEHIIWTLFQHTLQNEYELMRDRHLDQIMMCSMYGICKVKNIDLKFKIIVTAYKDLPHAVQETFKRVLIKEEEYDSIIVFYNSVFMQRLKTNILQYASTRPPTLSPIPHI", "values": [{"measurement": "binding result", "result": "binds"}]}
